Reference: article PMC5296760, “Structural basis of the interaction between Topoisomerase IIIβ and the TDRD3 auxiliary factor” (Scientific Reports, 2017)
“And” between values parts separate entries of the source, which are not always exact repeats. Equal values may be shown once.

T1: TOP3β TOPO domain (1–612) (human, UniProt O95985 1-612)
T1 construct: human Topoisomerase IIIβ, topoisomerase (TOPO) domain, residues 1–612; also called TOP3β (1–612); catalytic domain of TOP3β; source: baculovirus-infected Sf9 cells, purified (Glutathione Sepharose, GST removed by HRV 3C protease, SEC); not shown: GST, N-terminal, cleaved
T1 sequence (looked up): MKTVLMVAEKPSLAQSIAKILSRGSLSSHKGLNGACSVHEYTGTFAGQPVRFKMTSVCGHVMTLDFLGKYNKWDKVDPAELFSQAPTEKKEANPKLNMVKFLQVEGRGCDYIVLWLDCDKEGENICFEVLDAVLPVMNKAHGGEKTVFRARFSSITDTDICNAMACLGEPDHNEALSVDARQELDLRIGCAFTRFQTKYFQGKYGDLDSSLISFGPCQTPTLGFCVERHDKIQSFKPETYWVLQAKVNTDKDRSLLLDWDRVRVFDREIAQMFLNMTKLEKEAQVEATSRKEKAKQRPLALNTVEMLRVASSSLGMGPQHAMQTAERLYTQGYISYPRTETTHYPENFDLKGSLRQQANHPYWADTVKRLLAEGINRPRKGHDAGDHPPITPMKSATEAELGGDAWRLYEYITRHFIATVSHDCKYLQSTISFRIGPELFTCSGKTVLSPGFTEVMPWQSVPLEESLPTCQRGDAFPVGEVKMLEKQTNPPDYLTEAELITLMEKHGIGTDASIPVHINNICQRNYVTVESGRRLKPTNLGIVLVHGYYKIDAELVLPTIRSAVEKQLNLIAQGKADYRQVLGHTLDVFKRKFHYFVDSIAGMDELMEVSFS

B1: TDRD3 (1–161) of the TOP3β–TDRD3 complex (domain or fragment, human, UniProt Q9H7E2-3 1-161, looked up)
chain: MAQVAGAALSQAGWYLSDEGIEACTSSPDKVNVNDIILIALNTDLRTIGKKFLPSDINSGKVEKLEGPCVLQIQKIRNVAAPKDNEESQAAPRMLRLQMTDGHISCTAVEFSYMSKISLNTPPGTKVKLSGIVDIKNGFLLLNDSNTTVLGGEVEHLIEKW
notes: human TDRD3 DUF1767 and OB-fold domains; made as 1–171, cut by chymotrypsin at Trp161, deposited as 1–161; also called TDRD3 DUF–OB; source: E. coli Rosetta (DE3), purified; TDRD3 (1–171) mixed with TOP3β (1–612), trimmed with chymotrypsin, SEC; not shown: GST, N-terminal, cleaved
B2: TDRD3 OB-fold domain (48–171) (domain or fragment, human, UniProt Q9H7E2-3 48-171, looked up)
chain: IGKKFLPSDINSGKVEKLEGPCVLQIQKIRNVAAPKDNEESQAAPRMLRLQMTDGHISCTAVEFSYMSKISLNTPPGTKVKLSGIVDIKNGFLLLNDSNTTVLGGEVEHLIEKWELQRSLSKHN
notes: human TDRD3 OB-fold domain, residues 48–171; purification is described only for DUF–OB; also called TDRD3 OB-fold domain alone; source: E. coli Rosetta (DE3) (as told for DUF–OB)

The molecules below were run against GST-TOP3β (1–612), wild type (human) (UniProt O95985) (assay: pull-down; GST-TOP3β (1–612) on Glutathione Sepharose FF, 1.0 μM TDRD3 or RMI1 protein (Fig. 3f right, 4b); same buffer, 4 °C, 2 hrs; Coomassie, densitometry). Conditions: not given.

First: TDRD3 DUF–OB A80S/A81Q/A90K/A91P/P92S (from UniProt Q9H7E2-3 1-161) (domain or fragment)
Second: TDRD3 DUF–OB V^79-SSGG-P^92 (from UniProt Q9H7E2-3 1-161) (domain or fragment)
The percent of wild-type binding of the first is higher: 80% for the first, 40% for the second.

These molecules were tested against GST-TOP3β (1–612), wild type (human) (UniProt O95985) (assay: pull-down; GST-TOP3β (1–612) on Glutathione Sepharose FF, 0.5 μM TDRD3 or RMI1 protein (Fig. 3c, 4d, 4e); 20 mM Tris-Cl pH 7.4, 200 mM NaCl, 1 mM MgCl2, 5 mM β-mercaptoethanol, 0.1% Triton X-100, 4 °C, 2 hrs; Coomassie, densitometry). Conditions: not given.

“TDRD3 DUF–OB F111Y (from UniProt Q9H7E2-3 1-161) (domain or fragment)” and “TDRD3 DUF–OB F139V (from UniProt Q9H7E2-3 1-161) (domain or fragment)” cannot be ordered by percent of wild-type binding: over 70% for the first, over 70% for the second.

“TDRD3 DUF–OB R96M (from UniProt Q9H7E2-3 1-161) (domain or fragment)” and “TDRD3 DUF–OB R96M/F111Y (from UniProt Q9H7E2-3 1-161) (domain or fragment)” cannot be ordered by percent of wild-type binding: over 70% for the first, over 70% for the second.

“TDRD3 DUF–OB R96M/F139V (from UniProt Q9H7E2-3 1-161) (domain or fragment)” and “TDRD3 DUF–OB R96M/V109M (from UniProt Q9H7E2-3 1-161) (domain or fragment)” cannot be ordered by percent of wild-type binding: over 70% for the first, over 70% for the second.

“TDRD3 DUF–OB V109M (from UniProt Q9H7E2-3 1-161) (domain or fragment)” and “TDRD3 DUF–OB V109M/F111Y/F139V (from UniProt Q9H7E2-3 1-161) (domain or fragment)” cannot be ordered by percent of wild-type binding: over 70% for the first, over 70% for the second.

“TDRD3-RMI1loop (from UniProt Q9H7E2-3 1-78; Q9H9A7 95-132; Q9H7E2-3 93-161) (domain or fragment)” was tested, and the percent of wild-type binding was 70%.

For “TDRD3 DUF–OB R96M/V109M/F139V (from UniProt Q9H7E2-3 1-161) (domain or fragment)”, the percent of wild-type binding was 35% and 30%.

Each molecule was assayed against T1, TOP3β TOPO domain (1–612) (assay: crystal structure; TOP3β (1–612)–TDRD3 (1–161) complex, 3.6 Å; sitting drop, 20 °C, 50 mM Na-cacodylate pH 6.2, 10 mM MgSO4, 1.7 M Li2SO4). Conditions: both partners purified.

B1: binds.

These molecules were tested against T1, TOP3β TOPO domain (1–612) (assay: SEC; binding analysis using size-exclusion column chromatography (Supplementary Fig. 3a)). Conditions: both partners purified.

B2: binds.

Each molecule was assayed against GST-TOP3β (1–612), wild type (human) (UniProt O95985) (assay: pull-down; GST-TOP3β (1–612) on Glutathione Sepharose FF, 0.2 μM TDRD3 protein (Fig. 3f left); same buffer, 4 °C, 2 hrs; Coomassie, densitometry). Conditions: not given.

“TDRD3 DUF–OB A80S/A81S (from UniProt Q9H7E2-3 1-161) (domain or fragment)” and “TDRD3 DUF–OB P82S (from UniProt Q9H7E2-3 1-161) (domain or fragment)” cannot be ordered by percent of wild-type binding: over 60% for the first, over 60% for the second.

Going from “TDRD3 DUF–OB P92S (from UniProt Q9H7E2-3 1-161) (domain or fragment)” to “TDRD3 DUF–OB P^82-GSGSGGS-A^90 (from UniProt Q9H7E2-3 1-161) (domain or fragment)”, the percent of wild-type binding rises from 50% to 60%.

First: TDRD3 DUF–OB V79S (from UniProt Q9H7E2-3 1-161) (domain or fragment)
Second: TDRD3 DUF–OB V79S/P82S (from UniProt Q9H7E2-3 1-161) (domain or fragment)
The percent of wild-type binding of the first is higher: over 60% for the first, 30% for the second.
